Test results published in US20240344138A1, “TARGETED THERAPIES IN CANCER” (Feng Biosciences, Inc, priority 2021, published 2024).

How the values were obtained:
Format in all cases: in vivo, human
[1] = tested on: locally advanced or metastatic gastric cancer; experiment: First-line clinical trial of chemotherapy, immune checkpoint inhibitor and navicixizumab, outcome by TME phenotype
Procedure: (§1) A clinical trial is run to determine whether locally advanced or metastatic gastric cancer tumor microenvironment phenotypes correlate to clinical responses when patients are treated with chemotherapy, an immune checkpoint inhibitor, and Navicixizumab in the first-line setting. The analysis includes samples from 120 patients across 2 treatment arms (60 patients in each arm). Patients are randomized to receive either (i) chemotherapy and an immune checkpoint inhibitor or (ii) chemotherapy, an immune checkpoint inhibitor and Navicixizumab. RNA gene signatures are analyzed from tumor samples acquired before any treatments and TME phenotypes are determined. Patients are followed for clinical response, progression-free survival, and overall survival.
Gastric cancer patients are randomized to receiving a regimen of chemotherapy (e.g., capecitabine, 5-FU, cisplatin etc.) plus an immune checkpoint inhibitor (anti-PD-(L)1—e.g., an inhibitor to PD-1 or PD-L1) therapy, or a regimen of chemotherapy/immune checkpoint inhibitor/Navicixizumab. […] The correlation between each TME phenotype is tested against clinical outcome data. In immune active (IA), immune suppressed (IS) and angiogenic (A) patients the use of the regimen of chemotherapy/immune checkpoint inhibitor/Navicixizumab confers benefit in comparison to patients classified to the immune desert (ID) TME phenotype class as shown in the TABLE 26.

[2] = tested on: platinum-resistant or platinum-sensitive recurrent ovarian cancer; experiment: Clinical trial of PARP inhibitor and navicixizumab in PARP naive and PARP resistant cohorts, ORR by TME phenotype; conditions: n = 20 per treatment group
Procedure: A clinical trial is run to determine whether ovarian cancer tumor microenvironment phenotypes correlate to clinical responses when patients are treated with a PARP inhibitor, and navicixizumab in PARP naïve patients or patients that previously progressed on PARP inhibitor. The analysis includes samples from two different cohorts (one consisting of PARP inhibitor naïve patients and one consisting of PARP resistant patients). 40 patients from each cohort are randomized to 2 different treatment arms (20 patients in each arm). Patients are randomized to receive either a PARP inhibitor in combination with navicixizumab or PARP inhibitor monotherapy (PARP naïve cohort) or PARP inhibitor in combination with navicixizumab or navicixizumab monotherapy (PARP resistant). RNA gene signatures are analyzed from tumor samples acquired before the treatments and TME phenotypes are determined. Patients are followed for clinical response.
Ovarian cancer patients are randomized to receiving a regimen of PARP inhibitor (Olaparib, Rucaparib, Niraparib, etc.) plus navicixizumab, PARP monotherapy (PARP naive) or Navicixizumab monotherapy. The combination of PARP inhibitor/Navicixizumab increases overall response rate in patients with recurrent ovarian cancer compared to navicixizumab alone in both the PARP naive and PARP resistant cohorts as shown in TABLE 35. […] Eighty (80) total patients are enrolled, 20 in each of the treatment groups across the two cohorts with equal representation across the 4 stromal phenotypes (5 in each phenotype per treatment group). The correlation between each TME phenotype is tested against clinical outcome data. In immune suppressed (IS), and angiogenic (A) patients the use of the regimen of PARPi/Navicixizumab confers benefit in comparison to patients classified to immune active (IA) and immune desert (ID) TME phenotype classes as shown in the TABLE 36.

[3] = tested on: castration-resistant metastatic prostate cancer; experiment: Third-line clinical trial of navicixizumab/chemotherapy or navicixizumab/PARP inhibitor, outcome by TME phenotype; conditions: plus chemotherapy group
Procedure: A clinical trial is run to determine whether castration-resistant metastatic prostate cancer tumor microenvironment phenotypes correlate to clinical responses when patients are treated with a combination of Navicixizumab/chemotherapy or Navicixizumab/PARP inhibitor in the third-line setting. […] Patients receive either Navicixizumab/chemotherapy (BRCA WT) or Navicixizumab/PARP inhibitor (BRCA mutant). RNA gene signatures are analyzed from tumor samples acquired before any treatments and TME phenotypes are determined. Patients are followed for clinical response, progression-free survival and overall survival. […] BRCA WT prostate cancer patients receive a regimen of Navicixizumab plus chemotherapy (e.g., docetaxel, cabazitaxel etc.). BRCA mutant prostate cancer patients receive a regimen of Navicixizumab plus a PARP inhibitor (e.g., Rucaparib, Olaparib, etc.). […] The correlation between each TME phenotype is tested against clinical outcome data. In tumors that are biomarker positive, represented by angiogenic (A) and immune suppressed (IS) phenotypes, the use of Navicixizumab combinations confers benefit in comparison to patients classified as biomarker negative, represented by immune active (IA) and immune desert (ID) TME phenotype classes as shown in the TABLE 29 and TABLE 30.

[4] = tested on: locally advanced/metastatic HER2-negative breast cancer; experiment: Second-line clinical trial of navicixizumab/chemotherapy or navicixizumab/PARP inhibitor, outcome by TME phenotype; conditions: plus chemotherapy group
Procedure: A clinical trial is run to determine whether locally advanced/metastatic HER2-negative breast cancer tumor microenvironment phenotypes correlate to clinical responses when patients are treated with a combination of Navicixizumab/chemotherapy or Navicixizumab/PARP inhibitor in the second-line setting. […] Patients receive either Navicixizumab/chemotherapy (BRCA WT and hormone receptor-positive) or Navicixizumab/PARP inhibitor (BRCA mutant or triple-negative for ER/PR/HER2). RNA gene signatures are analyzed from tumor samples acquired before any treatments and TME phenotypes are determined. Patients are followed for clinical response and progression-free survival. […] BRCA WT/hormone receptor-positive/HER2-negative breast cancer patients receive a regimen of Navicixizumab plus chemotherapy (e.g., capecitabine, etc.). BRCA mutant or triple-negative for ER/PR/HER2 breast cancer patients receive a regimen of Navicixizumab plus a PARP inhibitor (e.g., Rucaparib, Olaparib, etc.). […] The correlation between each TME phenotype is tested against clinical outcome data. In biomarker positive tumors, represented by angiogenic (A) and immune suppressed (IS) phenotypes, the use of Navicixizumab combinations confers benefit in comparison to patients classified as biomarker negative, represented by immune active (IA) and immune desert (ID) TME phenotype classes as shown in the TABLE 27 and TABLE 28.

[5] = tested on: locally advanced or metastatic gastric cancer; experiment: First-line clinical trial of chemotherapy, immune checkpoint inhibitor and bavituximab, outcome by TME phenotype
Procedure: as §1, with “inhibitor, and Bavituximab in the” for “inhibitor, and Navicixizumab in the”, “immune checkpoint inhibitor, or (ii)” for “immune checkpoint inhibitor or (ii)”, “immune checkpoint inhibitor, and bavituximab.” for “immune checkpoint inhibitor and Navicixizumab.”, “inhibitor, and bavituximab. RNA gene” for “inhibitor and Navicixizumab. RNA gene”
Gastric cancer patients are randomized to receiving a regimen of chemotherapy (i.e. capecitabine, 5-FU, cisplatin etc.) plus an immune checkpoint inhibitor (anti-PD-(L)1—i.e., an inhibitor to PD-1 or PD-L1) therapy, or a regimen of chemotherapy/immune checkpoint inhibitor/Bavituximab. The combination of chemotherapy/immune checkpoint inhibitor/Bavituximab increases overall response rate (ORR), 6 month progression-free survival (PFS) and overall survival (OS) patients with advanced gastric cancer compared to the regimen of chemotherapy/immune checkpoint inhibitor alone as shown in TABLE 23. […] One hundred and twenty (120) patients are enrolled, 60 in each of the treatment groups with equal representation across the 4 stromal phenotypes (15 in each phenotype per treatment group). The correlation between each TME phenotype is tested against clinical outcome data. In immune active (IA) and immune suppressed (IS) patients the use of the regimen of chemotherapy/immune checkpoint inhibitor/Bavituximab confers benefit in comparison to patients classified to angiogenic (A) and immune desert (ID) TME phenotype classes as shown in the TABLE 24.

B1: Chemo/Immune Checkpoint Inhibitor/Navicixizumab: regimen of chemotherapy, immune checkpoint inhibitor and navicixizumab (antibody, chains of the INN, looked up, V domains shown)
VH: QVQLVQSGAEVKKPGASVKISCKASGYSFTAYYIHWVKQAPGQGLEWIGYISNYNRATNYNQKFKGRVTFTTDTSTSTAYMELRSLRSDDTAVYYCARDYDYDVGMDYWGQGTLVTVSS
VL: DIVMTQSPDSLAVSLGERATISCRASESVDNYGISFMKWFQQKPGQPPKLLIYAASNQGSGVPDRFSGSGSGTDFTLTISSLQAEDVAVYYCQQSKEVPWTFGGGTKVEIK
VH2: QVQLVQSGAEVKKPGASVKVSCKASGYTFTNYWMHWVRQAPGQGLEWMGDINPSNGRTSYKEKFKRRVTLSVDKSSSTAYMELSSLRSEDTAVYFCTIHYDDKYYPLMDYWGQGTLVTVSS
VL2: B1 VL
modifications: with chemotherapy and checkpoint inhibitor
- 6 Month PFS (%) ([1]; A (n = 15)): 66.7%
- ORR (%) ([1]; A (n = 15)): 60.0%
- OS (months) ([1]; A (n = 15)): 15.4 months
- 6 Month PFS (%) ([1]; IA (n = 15)): 73.3%
- ORR (%) ([1]; IA (n = 15)): 66.7%
- OS (months) ([1]; IA (n = 15)): 17.4 months
- 6 Month PFS (%) ([1]; ID (n = 15)): 53.3%
- ORR (%) ([1]; ID (n = 15)): 46.7%
- OS (months) ([1]; ID (n = 15)): 11.5 months
- 6 Month PFS (%) ([1]; IS (n = 15)): 73.3%
- ORR (%) ([1]; IS (n = 15)): 73.3%
- OS (months) ([1]; IS (n = 15)): 19.7 months
- 6 Month PFS (%) ([1]; whole treatment group (n = 60)): 67%
- ORR (%) ([1]; whole treatment group (n = 60)): 63%
- OS (months) ([1]; whole treatment group (n = 60)): 16 months

B2: PARPi/Navicixizumab (antibody, chains of the INN, looked up, V domains shown)
VH: B1 VH
VL: B1 VL
VH2: B1 VH2
VL2: B1 VL
modifications: with PARP inhibitor
- Overall response rate (ORR) ([2]; PARP naiive cohort): 65%
- Overall response rate (ORR) ([2]; PARP resistant cohort): 40%

B3: Navicixizumab plus chemotherapy: navicixizumab plus chemotherapy (e.g., capecitabine in breast; docetaxel, cabazitaxel in prostate) (antibody, chains of the INN, looked up, V domains shown)
VH: B1 VH
VL: B1 VL
VH2: B1 VH2
VL2: B1 VL
modifications: plus chemotherapy
- ORR (%) ([3]; A (n = 10)): 54%
- OS (months) ([3]; A (n = 10)): 19.0 months
- PFS (months) ([3]; A (n = 10)): 13.5 months
- ORR (%) ([3]; Biomarker Negative (n = 20)): 34%
- OS (months) ([3]; Biomarker Negative (n = 20)): 11.9 months
- PFS (months) ([3]; Biomarker Negative (n = 20)): 9.8 months
- ORR (%) ([3]; Biomarker Positive (n = 20), BRCA WT): 56%
- OS (months) ([3]; Biomarker Positive (n = 20)): 20.1 months
- PFS (months) ([3]; Biomarker Positive (n = 20)): 14.2 months
- ORR (%) ([3]; IA (n = 10)): 37%
- OS (months) ([3]; IA (n = 10)): 12.0 months
- PFS (months) ([3]; IA (n = 10)): 10.9 months
- ORR (%) ([3]; ID (n = 10)): 31%
- OS (months) ([3]; ID (n = 10)): 11.8 months
- PFS (months) ([3]; ID (n = 10)): 8.7 months
- ORR (%) ([3]; IS (n = 10)): 58%
- OS (months) ([3]; IS (n = 10)): 21.2 months
- PFS (months) ([3]; IS (n = 10)): 14.7 months
- ORR (%) ([4]; A (n = 15)): 60%
- PFS (months) ([4]; A (n = 15)): 11.5 months
- ORR (%) ([4]; Biomarker Negative (n = 30)): 20%
- PFS (months) ([4]; Biomarker Negative (n = 30)): 5.7 months
- ORR (%) ([4]; Biomarker Positive (n = 30), BRCA WT, hormone receptor-positive): 63.4%
- PFS (months) ([4]; Biomarker Positive (n = 30)): 12.3 months
- ORR (%) ([4]; IA (n = 15)): 26.7%
- PFS (months) ([4]; IA (n = 15)): 6.0 months
- ORR (%) ([4]; ID (n = 15)): 13.3%
- PFS (months) ([4]; ID (n = 15)): 5.4 months
- ORR (%) ([4]; IS (n = 15)): 66.7%
- PFS (months) ([4]; IS (n = 15)): 13.1 months

B4: Chemo/Immune Checkpoint Inhibitor/Bavituximab: regimen of chemotherapy, immune checkpoint inhibitor and bavituximab (antibody, chains of the INN, looked up, V domains shown)
VH: EVQLQQSGPELEKPGASVKLSCKASGYSFTGYNMNWVKQSHGKSLEWIGHIDPYYGDTSYNQKFRGKATLTVDKSSSTAYMQLKSLTSEDSAVYYCVKGGYYGHWYFDVWGAGTTVTVSS
VL: DIQMTQSPSSLSASLGERVSLTCRASQDIGSSLNWLQQGPDGTIKRLIYATSSLDSGVPKRFSGSRSGSDYSLTISSLESEDFVDYYCLQYVSSPPTFGAGTKLELK
modifications: with chemotherapy and checkpoint inhibitor
- 6 Month PFS (%) ([5]; A (n = 15)): 46.7%
- ORR (%) ([5]; A (n = 15)): 46.7%
- OS (months) ([5]; A (n = 15)): 8.2 months
- 6 Month PFS (%) ([5]; IA (n = 15)): 80.0%
- ORR (%) ([5]; IA (n = 15)): 73.3%
- OS (months) ([5]; IA (n = 15)): 20.2 months
- 6 Month PFS (%) ([5]; ID (n = 15)): 60.0%
- ORR (%) ([5]; ID (n = 15)): 53.3%
- OS (months) ([5]; ID (n = 15)): 11.8 months
- 6 Month PFS (%) ([5]; IS (n = 15)): 73.3%
- ORR (%) ([5]; IS (n = 15)): 66.7%
- OS (months) ([5]; IS (n = 15)): 19.8 months
- 6 Month PFS (%) ([5]; whole treatment group (n = 60)): 65%
- ORR (%) ([5]; whole treatment group (n = 60)): 60%
- OS (months) ([5]; whole treatment group (n = 60)): 15 months
